Experimental findings from paper PMC7235218, “HIV-1 Tat – TLR4/MD2 interaction drives the expression of IDO-1 in monocytes derived dendritic cells through NF-κB dependent pathway” (Scientific Reports, 2020) are described below.

This assay addresses T1, Recombinant human TLR4/MD2 complex (human, UniProt O00206 24-631; Q9Y6Y9 19-160).
T1 construct: Toll-like receptor 4 (TLR4), human, soluble recombinant; MD2 (lymphocyte antigen 96), human, recombinant; No catalogue number is printed; also called rTLR4/MD2; soluble recombinant TLR4/MD2; source: bought: R&D system
The assay is described as follows: ELISA; solid-phase binding assay: recombinant TLR4/MD2 (1 µg/ml) coated on 96 maxisorp well plates overnight at 4 °C; GST or GST-Tat at 0.1-1 µM for 2 hours at room temperature; detected with anti-GST and a peroxidase-conjugated secondary antibody. The settings on record: both partners purified. In general terms: ELISA stands for enzyme-linked immunosorbent assay.

T1 sequence (O00206 24-631, chain 1 of 2): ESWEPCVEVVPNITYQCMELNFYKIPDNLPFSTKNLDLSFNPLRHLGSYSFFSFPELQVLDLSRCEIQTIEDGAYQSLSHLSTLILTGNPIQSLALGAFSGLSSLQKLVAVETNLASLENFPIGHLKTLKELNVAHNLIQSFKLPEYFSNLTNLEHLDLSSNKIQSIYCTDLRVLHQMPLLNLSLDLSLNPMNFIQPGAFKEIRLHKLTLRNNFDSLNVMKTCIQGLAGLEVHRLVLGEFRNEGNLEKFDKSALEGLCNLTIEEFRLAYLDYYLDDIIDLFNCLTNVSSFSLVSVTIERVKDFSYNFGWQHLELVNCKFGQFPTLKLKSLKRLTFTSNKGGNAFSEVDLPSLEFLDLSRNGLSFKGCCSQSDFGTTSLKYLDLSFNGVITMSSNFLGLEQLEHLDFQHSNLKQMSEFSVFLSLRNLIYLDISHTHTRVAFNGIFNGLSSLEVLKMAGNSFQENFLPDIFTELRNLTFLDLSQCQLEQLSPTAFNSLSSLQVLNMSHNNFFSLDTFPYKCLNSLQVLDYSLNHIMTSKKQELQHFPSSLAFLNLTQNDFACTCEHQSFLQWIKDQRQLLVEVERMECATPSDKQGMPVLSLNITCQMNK
T1 sequence (Q9Y6Y9 19-160, chain 2 of 2): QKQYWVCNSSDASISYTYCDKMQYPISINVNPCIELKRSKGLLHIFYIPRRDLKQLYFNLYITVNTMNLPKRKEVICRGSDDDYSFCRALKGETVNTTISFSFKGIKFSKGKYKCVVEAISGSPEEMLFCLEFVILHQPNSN

B1: Recombinant HIV-1 Tat full length protein (Tat 1-101) fused to glutathione S-transferase (natural protein)
chain: MEPVDPNLEPWKHPGSQPRTACNNCYCKKCCFHCYACFTRKGLGISYGRKKRRQRRRAPQDSQTHQASLSKQPASQSRGDPTGPTESKKKVERETETDPFD
notes: Tat protein of HIV-1 group M subtype B (isolate SF2), full length protein, Tat 1-101; Endotoxin below 0.3 EU/µg; also called GST-Tat 1-101; GST-Tat1-101
As to B1, the binding result is listed as “binds”.
